Reference: the supplement of paper PMC10567573

B1: TRIM63 (parent)
chain: FRCPTCRHEVIMDRHGVYGLQRNL

Variants of: B1
Assay: protein stability index of a GFP-peptide fusion (GPS, HEK-293T) (PSI 1-6); higher = more stable
Conditions: c terminus: a fixed tail appended
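Further: lentivirally expressed fusions sorted by FACS into six bins by GFP to DsRed ratio, PSI derived from sequencing read proportions per bin multiplied by bin number.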

Variant	protein stability index
FRCPYCRHEVIMDRHGVYGLQRNL [T5Y]	2.65
FRCPQCRHEVIMDRHGVYGLQRNL [T5Q]	1.64
FRCPICRHEVIMDRHGVYGLQRNL [T5I]	2.53
FRCPWCRHEVIMDRHGVYGLQRNL [T5W]	2.17
FRCPGCRHEVIMDRHGVYGLQRNL [T5G]	1.33
FRCPCCRHEVIMDRHGVYGLQRNL [T5C]	2.14
FRCPDCRHEVIMDRHGVYGLQRNL [T5D]	3.7
FRCPSCRHEVIMDRHGVYGLQRNL [T5S]	1.82
FRCPLCRHEVIMDRHGVYGLQRNL [T5L]	1.72
FRCPMCRHEVIMDRHGVYGLQRNL [T5M]	2.28
FRCPNCRHEVIMDRHGVYGLQRNL [T5N]	3.43
FRCPACRHEVIMDRHGVYGLQRNL [T5A]	2.39
FRCPVCRHEVIMDRHGVYGLQRNL [T5V]	3.27
FRCPFCRHEVIMDRHGVYGLQRNL [T5F]	2.32
FRCPKCRHEVIMDRHGVYGLQRNL [T5K]	2.38
FRCPHCRHEVIMDRHGVYGLQRNL [T5H]	3.16
FRCPRCRHEVIMDRHGVYGLQRNL [T5R]	1.77
FRCPTCKHEVIMDRHGVYGLQRNL [R7K]	3.15
FRCPTCGHEVIMDRHGVYGLQRNL [R7G]	3.57
FRCPTCFHEVIMDRHGVYGLQRNL [R7F]	2.42
FRCPTCDHEVIMDRHGVYGLQRNL [R7D]	3.28
FRCPTCCHEVIMDRHGVYGLQRNL [R7C]	2.24
FRCPTCNHEVIMDRHGVYGLQRNL [R7N]	3
FRCPTCSHEVIMDRHGVYGLQRNL [R7S]	2.24

Variant	protein stability index
FRCPTCHHEVIMDRHGVYGLQRNL [R7H]	2.46
FRCPTCLHEVIMDRHGVYGLQRNL [R7L]	2.13
FRCPTCPHEVIMDRHGVYGLQRNL [R7P]	2.36
FRCPTCTHEVIMDRHGVYGLQRNL [R7T]	2.35
FRCPTCEHEVIMDRHGVYGLQRNL [R7E]	2.09
FRCPTCMHEVIMDRHGVYGLQRNL [R7M]	2.42
FRCPTCQHEVIMDRHGVYGLQRNL [R7Q]	2.48
FRCPTCAHEVIMDRHGVYGLQRNL [R7A]	2.63
FRVPTCRHEVIMDRHGVYGLQRNL [C3V]	2.12
FRMPTCRHEVIMDRHGVYGLQRNL [C3M]	4.35
FRQPTCRHEVIMDRHGVYGLQRNL [C3Q]	1.78
FRPPTCRHEVIMDRHGVYGLQRNL [C3P]	1.94
FRYPTCRHEVIMDRHGVYGLQRNL [C3Y]	3.25
FREPTCRHEVIMDRHGVYGLQRNL [C3E]	2.04
FRGPTCRHEVIMDRHGVYGLQRNL [C3G]	2.15
FRDPTCRHEVIMDRHGVYGLQRNL [C3D]	1.7
FRNPTCRHEVIMDRHGVYGLQRNL [C3N]	3.22
FRLPTCRHEVIMDRHGVYGLQRNL [C3L]	2.9
FRIPTCRHEVIMDRHGVYGLQRNL [C3I]	2.6
FRKPTCRHEVIMDRHGVYGLQRNL [C3K]	1.74
FRFPTCRHEVIMDRHGVYGLQRNL [C3F]	3.62
FRSPTCRHEVIMDRHGVYGLQRNL [C3S]	2.41
FRWPTCRHEVIMDRHGVYGLQRNL [C3W]	2.18
FRTPTCRHEVIMDRHGVYGLQRNL [C3T]	1.52

Variant	protein stability index
FRRPTCRHEVIMDRHGVYGLQRNL [C3R]	1.54
FRAPTCRHEVIMDRHGVYGLQRNL [C3A]	3.2
FRHPTCRHEVIMDRHGVYGLQRNL [C3H]	4.77
FPCPTCRHEVIMDRHGVYGLQRNL [R2P]	1.56
FVCPTCRHEVIMDRHGVYGLQRNL [R2V]	1.86
FTCPTCRHEVIMDRHGVYGLQRNL [R2T]	2.05
FSCPTCRHEVIMDRHGVYGLQRNL [R2S]	1.4
FNCPTCRHEVIMDRHGVYGLQRNL [R2N]	1.44
FQCPTCRHEVIMDRHGVYGLQRNL [R2Q]	1.84
FYCPTCRHEVIMDRHGVYGLQRNL [R2Y]	1.87
FMCPTCRHEVIMDRHGVYGLQRNL [R2M]	2.58
FWCPTCRHEVIMDRHGVYGLQRNL [R2W]	2.42
FRCPTLRHEVIMDRHGVYGLQRNL [C6L]	2.16
FRCPTHRHEVIMDRHGVYGLQRNL [C6H]	1.91
FRCPTFRHEVIMDRHGVYGLQRNL [C6F]	1.63
FRCPTQRHEVIMDRHGVYGLQRNL [C6Q]	2.73
FRCPTRRHEVIMDRHGVYGLQRNL [C6R]	2.27
FRCPTSRHEVIMDRHGVYGLQRNL [C6S]	2.09
FRCPTPRHEVIMDRHGVYGLQRNL [C6P]	2.89
FRCPTYRHEVIMDRHGVYGLQRNL [C6Y]	2.37
FRCPTMRHEVIMDRHGVYGLQRNL [C6M]	2.06
FRCPTVRHEVIMDRHGVYGLQRNL [C6V]	2.51
FRCPTWRHEVIMDRHGVYGLQRNL [C6W]	1.77
FRCPTDRHEVIMDRHGVYGLQRNL [C6D]	2.62

Variant	protein stability index
FRCPTTRHEVIMDRHGVYGLQRNL [C6T]	2.97
FRCPTERHEVIMDRHGVYGLQRNL [C6E]	2.61
FRCPTKRHEVIMDRHGVYGLQRNL [C6K]	2.15
FRCPTNRHEVIMDRHGVYGLQRNL [C6N]	2.38
FRCPTGRHEVIMDRHGVYGLQRNL [C6G]	2.31
FRCPTARHEVIMDRHGVYGLQRNL [C6A]	2.57
FRCPTIRHEVIMDRHGVYGLQRNL [C6I]	1.89
FRCHTCRHEVIMDRHGVYGLQRNL [P4H]	3.24
FRCVTCRHEVIMDRHGVYGLQRNL [P4V]	2.99
FRCITCRHEVIMDRHGVYGLQRNL [P4I]	3.9
FRCSTCRHEVIMDRHGVYGLQRNL [P4S]	2.93
FRCQTCRHEVIMDRHGVYGLQRNL [P4Q]	3.65
FRCGTCRHEVIMDRHGVYGLQRNL [P4G]	1.38
FRCKTCRHEVIMDRHGVYGLQRNL [P4K]	2.67
FRCTTCRHEVIMDRHGVYGLQRNL [P4T]	3.2
FRCYTCRHEVIMDRHGVYGLQRNL [P4Y]	2.74
FRCDTCRHEVIMDRHGVYGLQRNL [P4D]	2.24
FRCATCRHEVIMDRHGVYGLQRNL [P4A]	2.38
FRCNTCRHEVIMDRHGVYGLQRNL [P4N]	3.06
FRCETCRHEVIMDRHGVYGLQRNL [P4E]	2.16
FRCFTCRHEVIMDRHGVYGLQRNL [P4F]	3.47
FRCRTCRHEVIMDRHGVYGLQRNL [P4R]	2.18
